The text below walks through data of patent US6828121.

The series concerns the target humanized anti-CD18 kappa light chain.

B1: Prc protease (periplasmic C-terminal processing protein) (protein)
chain: VEDITRADQIPVLKEETQHATVSERVTSRFTRSHYRQFDLDQAFSAKIFDRYLNLLDYSHNVLLASDVEQFAKKKTELGDELRSGKLDVFYDLYNLAQKRRFERYQYALSVLEKPMDFTGNDTYNLDRSKAPWPKNEAELNALWDSKVKFDELSLKLTGKTDKEIRETLTRRYKFAIRRLAQTNSEDVFSLAMTAFAREIDPHTNYLSPRNTEQFNTEMSLSLEGIGAVLQMDDDYTVINSMVAGGPAAKSKAISVGDKIVGVGQTGKPMVDVIGWRLDDVVALIKGPKGSKVRLEILPAGKGTKTRTVTLTRERIRLEDRAVKMSVKTVGKEKVGVLDIPGFYVGLTDDVKVQLQKLEKQNVSSVIIDLRSNGGGALTEAVSLSGLFIPAGPIVQVRDNNGKVREDSDTDGQVFYKGPLVVLVDRFSASASEIFAAAMQDYGRALVVGEPTFGKGTVQQYRSLNRIYDQMLRPEWPALGSVQYTIQKFYRVNGGSTQRKGVTPDIIMPTGNEETETGEKFEDNALPWDSIDAATYVKSGDLTAFEPELLKEHNARIAKDPEFQNIMKDIARFNAMKDKRNIVSLNYAVREKENNEDDATRLARLNERFKREGKPELKKLDDLPKDYQEPDPYLDETVNIALDLAKLEKARPAEQPAPVK
Turning to B1, the “kappa LC cleavage (LC clips on 1-D/2-D gels and peak 1 of the AME5/RP assay in prc-plus against prc-deletion strains)” value is recorded as “Here it is shown that Prc is the only protease involved in kappa LC cleavage inside E. coli cells”.
